1 molecule from PMC6461108 (2019) can be followed below.

The assay concerns the target S-peptide S-peptide (Bos taurus, UniProt P61823). The experiment in a line: ITC. Background: In ITC the heat of successive injections is recorded.

Chain of S-peptide S-peptide (P61823 27-46): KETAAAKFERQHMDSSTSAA

B1: RNase S-protein S-protein (protein)
chain: SSSNYCNQMMKSRNLTKDRCKPVNTFVHESLADVQAVCSQKNVACKNGQTNCYQSYSTMSITDCRETGSSKYPNCAYKTTQANKHIIVACEGNPYVPVHFDASV
The Kd is a measure of binding affinity in units of concentration. Lower therefore signals a tighter complex. In the case of B1, the affinity, expressed as Kd, was 0.13 µM.
